The values that follow come from PMC7979805.

The target in the assay is endogenous actin of neonatal rat cardiomyocytes (rat (endogenous in neonatal rat cardiomyocytes)) (UniProt P68035). Nature of the assay: co-sedimentation; G-actin/F-actin fractionation of lysates of neonatal rat cardiomyocytes transduced with mCherry or mCherry-Tpm1.1 (G-Actin/F-actin In Vivo Assay Biochem Kit); ultracentrifugation 100,000 x g, 37 °C, 1 h; supernatant and pellet immunoblotted. (In western blotting, separated proteins are transferred to a membrane and probed.)

In turn, “endogenous CAP2 of neonatal rat cardiomyocytes (from UniProt P52481 1-477) (natural protein)” had a percent of CAP2 in the F-actin fraction (cells expressing mCherry) of 28.6% and a percent of CAP2 in the F-actin fraction (cells expressing mCherry-Tpm1.1) of 25%.
The substance “endogenous Tmod1 of neonatal rat cardiomyocytes (from UniProt P70567 1-359) (natural protein)” yielded a percent of Tmod1 in the F-actin fraction (cells expressing mCherry) of 42.7% and a percent of Tmod1 in the F-actin fraction (cells expressing mCherry-Tpm1.1) of 65.6%.
